According to PMC4699842, “Synthetic prions with novel strain-specified properties” (PLoS Pathogens, 2015):

Molecular target: the molecule itself
Test: thioflavin-T fibrillization assay

B1: recombinant mouse prion protein residues 23-231 (recMoPrP(23–231)) (natural protein)
chain: not shown
notes: also called recPrP; rec full-length mouse (Mo) PrP
binding result: binds
